According to doi:10.1101/2024.10.11.617635 (bioRxiv, 2024):

Target: the molecule itself

Row | Protein | stoichiometry N
1 | NADK (non-methylated; construct not stated) (enzyme, human, UniProt O95544 1-446, looked up) MEMEQEKMTMNKELSPDAAAYCCSACHGDETWSYNHPIRGRAKSRSLSASPALGSTKEFRRTRSLHGPCPVTTFGPKACVLQNPQTIMHIQDPASQRLTWNKSPKSVLVIKKMRDASLLQPFKELCTHLMEENMIVYVEKKVLEDPAIASDESFGAVKKKFCTFREDYDDISNQIDFIICLGGDGTLLYASSLFQGSVPPVMAFHLGSLGFLTPFSFENFQSQVTQVIEGNAAVVLRSRLKVRVVKELRGKKTAVHNGLGENGSQAAGLDMDVGKQAMQYQVLNEVVIDRGPSSYLSNVDVYLDGHLITTVQGDGVIVSTPTGSTAYAAAAGASMIHPNVPAIMITPICPHSLSFRPIVVPAGVELKIMLSPEARNTAWVSFDGRKRQEIRHGDSISITTSCYPLPSICVRDPVSDWFESLAQCLHWNVRKKQAHFEEEEEEEEEG | 4
2 | methylated NADK (construct not stated) (enzyme, human, UniProt O95544 1-446, looked up, arginine methylation (the paper's sites are R39, R41 and R45, mono- and di-methylated); extent not stated) MEMEQEKMTMNKELSPDAAAYCCSACHGDETWSYNHPIRGRAKSRSLSASPALGSTKEFRRTRSLHGPCPVTTFGPKACVLQNPQTIMHIQDPASQRLTWNKSPKSVLVIKKMRDASLLQPFKELCTHLMEENMIVYVEKKVLEDPAIASDESFGAVKKKFCTFREDYDDISNQIDFIICLGGDGTLLYASSLFQGSVPPVMAFHLGSLGFLTPFSFENFQSQVTQVIEGNAAVVLRSRLKVRVVKELRGKKTAVHNGLGENGSQAAGLDMDVGKQAMQYQVLNEVVIDRGPSSYLSNVDVYLDGHLITTVQGDGVIVSTPTGSTAYAAAAGASMIHPNVPAIMITPICPHSLSFRPIVVPAGVELKIMLSPEARNTAWVSFDGRKRQEIRHGDSISITTSCYPLPSICVRDPVSDWFESLAQCLHWNVRKKQAHFEEEEEEEEEG | 4
